Measured values published in patent US20250123292.

Target: recombinant human endorepellin/perlecan (R&Dsystems, catalog Number: 2364-ER-050), intact, P98160

B1: Recombinant Human BMP-1/PCP (R&Dsystems, catalog Number: 1927-ZN) (protein)
chain: AATSRPERVWPDGVIPFVIGGNFTGSQRAVFRQAMRHWEKHTCVTFLERTDEDSYIVFTYRPCGCCSYVGRRGGGPQAISIGKNCDKFGIVVHELGHVVGFWHEHTRPDRDRHVSIVRENIQPGQEYNFLKMEPQEVESLGETYDFDSIMHYARNTFSRGIFLDTIVPKYEVNGVKPPIGQRTRLSKGDIAQARKLYKCPACGETLQDSTGNFSSPEYPNGYSAHMHCVWRISVTPGEKIILNFTSLDLYRSRLCWYDYVEVRDGFWRKAPLRGRFCGSKLPEPIVSTDSRLWVEFRSSSNWVGKGFFAVYEAICGGDVKKDYGHIQSPNYPDDYRPSKVCIWRIQVSEGFHVGLTFQSFEIERHDSCAYDYLEVRDGHSESSTLIGRYCGYEKPDDIKSTSSRLWLKFVSDGSINKAGFAVNFFKEVDECSRPNRGGCEQRCLNTLGSYKCSCDPGYELAPDKRRCEAACGGFLTKLNGSITSPGWPKEYPPNKNCIWQLVAPTQYRISLQFDFFETEGNDVCKYDFVEVRSGLTADSKLHGKFCGSEKPEVITSQYNNMRVEFKSDNTVSKKGFKAHFFSEKRPALQPPRGRPHQLKFRVQKRNRTPQ
For B1, the “measured levels of LG3 (LG3 ELISA) after in vitro cleavage, 24 hours at 37 C” value was “LG3 was detected only in the endorepellin with BMP-1 sample”.
